The target of one test is T1, human CD154 (Homo sapiens, UniProt P29965).
T1 construct: stably transfected with full length human CD154; expressed in transfected cells; host or cells: mouse fibroblasts, stably transfected
T1 sequence (P29965 1-261): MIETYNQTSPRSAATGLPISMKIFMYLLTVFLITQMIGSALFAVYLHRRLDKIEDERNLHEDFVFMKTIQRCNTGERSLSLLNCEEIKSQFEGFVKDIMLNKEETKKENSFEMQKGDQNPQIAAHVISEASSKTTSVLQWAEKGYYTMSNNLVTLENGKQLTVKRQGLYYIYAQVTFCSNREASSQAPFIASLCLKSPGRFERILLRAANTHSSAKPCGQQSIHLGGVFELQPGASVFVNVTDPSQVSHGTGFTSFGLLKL
Kind of test: FACS analysis of sCD40 binding to mouse fibroblasts expressing human CD154. Particulars: Fc tagged proteins, 1-50 μg/ml, 4° C., 60 min; mouse fibroblasts stably transfected with full length human CD154. As to the method:
10^6 mouse fibroblasts (stably transfected with full length human CD154) were incubated with either the known CD40 soluble variant, sCD40 WT (panel C, FIG. 17), the variant CD40-skipping 6 (panel A, FIG. 17) or the variant CD40-skipping 5 (panel B, FIG. 17). All CD40 variants were Fc tagged, and present at a concentration of 1-50 μg/ml at 4° C. for 60 min in total volume of 100 μl (0.5×10^6 cells). […] Analysis was performed using BD FACsCalibur. Panel E in FIG. 17 summarizes the mean fluorescence shift, as plotted versus various concentrations of CD40 protein.
Briefly, the FACS protocol was performed as follows. Mouse fibroblasts were trypsinized, and washed twice in PBS; cells were centrifuged at 1500 rpm for 10 min between washes. Next, the cells were re-suspended in FACS buffer (0.2% BSA and 0.02% sodium azide diluted 1/10 in PBS) to give 5-10×10^6 cells mL. Cells were placed in FACS test-tubes at a volume of 100 or 200 microliters per tube. […]
Next, 2 μL (1:50) anti CD40 non-blocking antibody (EA-5 mouse IgG1 PE-conjugated, obtained from Calbiochem) or controls (same isotype PE conjugated) were added to the tubes, and incubated for 30 min at 4° C. […] Next, 0.5 mL PBS was added to tubes, which were read in a FACS machine (BD FACSCalibur). […]
For this experiment, the controls included performing parallel assays with: mouse fibroblasts not expressing hCD154; non-relevant Fc (EA5, which is a mouse anti-CD40 antibody, see Malmborg Hager et al., Scandinavian J. 1 mm. 57:517-524 (2003) or non-Fc tagged proteins or purification mock; known CD40 soluble protein; secondary Ab only and isotype control only (isotype refers to an antibody control, featuring the same type of antibody but one which is not able to bind CD40). The axes are as follows: Y=cell counts; X=log scale of fluorescence intensity. M=A marker placed above the peak of positively stained cells on the histogram plot which provide the statistics of the stained population.
(In general: In flow cytometry, cells or beads pass a laser one at a time.)

The test system of test [1] is RANTES secretion via the CD40-CD154 pathway. Put plainly: RANTES cell assay (HPMC cells overlaid with mouse fibroblasts/CD154-mouse fibroblasts, ELISA RANTES test). It is filed as cell-based, human. The note with it: for dose response of inhibition of RANTES secretion (in words): FIG. 18G: CD154 ligand present, high cell number 10,000; for level of cytokine RANTES secretion (summary statement): human peritoneal cells plus mouse fibroblasts expressing CD154 ligand. As to the method:
Skipping 5 protein was administered to a mixture of human peritoneal cells (HPMC cells), which express the CD40 receptor on their membrane, and mouse fibroblasts transfected to express the CD154 ligand. The ability of the soluble skipping 5 protein to compete with the CD40 membrane-bound receptor for binding to the CD154 ligand presented on the mouse fibroblasts was thus tested. This ability was measured by determining the resultant level of the cytokine RANTES, which is a cytokine indicative of T cell activation, as compared to when a positive control of interferon (which raises the level of RANTES via a CD40-related pathway) was administered alone.
HPMC cells were grown in M199+10% FCS (Biological Industries, Bet Ha'emek, Israel), trypsinized (using trypsine from Biological Industries, Bet Ha'emek, Israel, 5 ml/75 cm^2 cell culture flask), and recultured into 96-well plates. Cell should reach at least 80% confluence before further use.
Mouse fibroblasts/CD154-mouse fibroblasts were grown in DMEM+10% FCS (Biological Industries). Cells were trypsinized, pelleted (5 min 500 at rpm), counted (½ vol cells+½ vol trypan blue) and resuspended in M199+10% FCS. Cells were then diluted (10,000 or 5000 cells per ml).
CD40 proteins/antibodies were prepared in various concentrations in PBS according to the desired dose response/treatment (volume of 1 reaction should not exceed 20 microliters), followed by adding the same volume of PBS to the negative and positive controls.
The CD40 protein was added to 100 microliters of mouse fibroblasts or CD154-mouse fibroblasts in eppendorf tubes (final volume dependant on duplicates/triplicates) and incubated at R.T for 1 h at 200 rpm (rotation during incubation)
During this incubation time the HPMC were prepared, by removing medium and washing cells twice, and adding 100 microliters of fresh M199+10% FCS with or without 100 U/ml IFN (PeproTech, 50U/μl).
The CD40 L cells mixtures were overlaid on the HPMC (110 ul/well) and incubated O.N (at 37° C., 5% CO2).
100 microliters were removed from supernatant and placed into new 96 well plates, followed by diluting the samples 1/10 in M199+10% FCS and using diluted samples for the ELISA RANTES test.
The cells in the experiment plate were checked for viability.
(In general: In an ELISA, binding on a coated surface is turned into a signal by an enzyme label.)

Test [2] relates to K562 cells. Kind of test: RT-PCR of CD40 splice forms in K562 cells treated with etoposide. It is filed as cell-based. The note with it: 20 μM Etoposide, various time intervals. The method, then: Samples of RT reactions of K562 treated with etoposide were prepared and used for PCR using CD40 primers (35 cycles). Etoposide (Sigma) is known as double-stranded DNA breakage and apoptosis inducing agent. The RT reactions were checked before the analysis to exclude possible genomic contamination and to ensure similar cDNA concentrations in the different samples, using quantitation with GAPDH (not shown).

The subject of test [3] is K562 cells. Kind of test: Caspase activation in K562 cells (immunoblot with anti cleaved PARP antibody). Type of test: cell-based. The note with it: 25 μM etoposide, 17 hrs. The method, then: For this purpose K562 cells were treated with 25 μM etoposide for 17 hrs, and the activation of caspases, one of the hallmarks of apoptosis, was measured. To measure caspase activation, the cells were lysed, immunoblotted and PARP, a known substrate for caspase-3, was probed using anti cleaved PARP antibody (Cell Signaling, Beverly, Mass.).
For orientation: In western blotting, separated proteins are transferred to a membrane and probed.

Where [4] appears, read: FIG. 18C: HPMC cells plus mouse fibroblasts expressing CD154, with interferon.
Where [5] appears, read: FIG. 18E: fixed concentration 200 nM sCD40 protein, varying number of CD154+ mouse fibroblasts.
The mark [6] stands for this setting: FIGS. 18A-C, complete system with INF and CD154 mouse fibroblasts.

Entries after “also recorded” stand apart in the source; their conditions may differ.

With “WT-sCD40-Fc: known CD40 extracellular domain (soluble, truncated) fused to Fc of IgG1 [reference compound]”, the “sCD40 binding to membrane CD154 (FACS)” value with human CD154 is on record as “significant binding”. In test [1] (setting [4]), the Rantes level result was “approximately 1000 pg/ml” and the “inhibition of Rantes level” value was found to be 50%. In test [1] (setting [5]), the “inhibition of RANTES secretion” value is 40-100%. The “dose response of inhibition of RANTES secretion (in words)” value (“dose response of inhibition … (in words)” below) in test [1] was “inhibitory effect”. Further, the “effect on RANTES secretion (in words)” value in test [1] (setting [6]) is listed as “inhibitory properties”.
Regarding “known truncation product derived from known CD40: known CD40 extracellular domain without transmembrane domain, a simple truncation product of known CD40 [reference compound]”, in test [1], the “level of cytokine RANTES secretion (summary statement)” value is listed as “decreased level”.
In the case of `COc1cc([C@@H]2c3cc4c(cc3[C@@H](O[C@@H]3O[C@@H]5CO[C@@H](C)O[C@H]5[C@H](O)[C@H]3O)[C@H]3COC(=O)[C@H]23)OCO4)cc(OC)c1O` [Etoposide], in the test on K562 cells [2], the “expression levels of secreted CD40 splice variant skipping exon 5 (RT-PCR)” value was “increase” and the “known wild type CD40 expression levels (RT-PCR)” value is given as “decrease”. Besides, the “cleaved PARP (caspase activation)” value in the test with K562 cells [3] is listed as “appearance of a band in the expected size”.

B1: Skipping 6-sCD40-Fc: Fc-tagged CD40 skipping exon 6 variant (protein)
chain: EPPTACREKQYLINSQCCSLCQPGQKLVSDCTEFTETECLPCGESEFLDTWNRETHCHQHKYCDPNLGLRVQQKGTSETDTICTCEEGWHCTSEACESCVLHRSCSPGFGVKQIATGVSDTICEPCPVGFFSNVSSAFEKCHPWTRSPGSAESPGGDPHHLRDPVCHPLGAGLYQKGGQEANQ
modifications: left off: a dimerising Fc or GST
notes: Fc-tagged CD40 skipping exon 6 variant
Regarding B1, the “sCD40 binding to membrane CD154 (FACS)” value in the test with human CD154 is listed as “significant binding”. In addition, the “dose response of inhibition … (in words)” value in test [1] is recorded as “inhibitory effect”.

B2: Skipping 5-sCD40-Fc: CD40 skipping exon 5 splice variant fused downstream to the Fc chain of Immunoglobulin IgG1, expressed in baculovirus (protein)
chain: EPPTACREKQYLINSQCCSLCQPGQKLVSDCTEFTETECLPCGESEFLDTWNRETHCHQHKYCDPNLGLRVQQKGTSETDTICTCEEGWHCTSEACESCVLHRSCSPGFGVKQIAVRPKTWLCNRQAQTRLMLSVVPRIG
modifications: left off: a dimerising Fc or GST
notes: CD40 skipping exon 5 splice variant fused downstream to the Fc chain of Immunoglobulin IgG1, expressed in baculovirus
As to B2, the “sCD40 binding to membrane CD154 (FACS)” value in the test with human CD154 is “different properties”. For the same molecule, the results for the “effect on RANTES secretion (in words)” value in test [1] (setting [5]) and in test [1] (setting [6]) were “stimulatory effect” and “no inhibition”, respectively. Further, the “effect on RANTES level in the absence of CD154 (in words)” value in test [1] (FIGS. 18A and B: HPMC cells only or with untransfected mouse fibroblasts, Interferon dependent) is on record as “agonistic effect; also recorded: agonistic properties”.

B3: Skip5: soluble CD40 splice variant lacking exon 5, SEQ ID NO:1, unique tail amino acids 136-160 (protein, listed as Homo sapiens)
chain: MVRLPLQCVLWGCLLTAVHPEPPTACREKQYLINSQCCSLCQPGQKLVSDCTEFTETECLPCGESEFLDTWNRETHCHQHKYCDPNLGLRVQQKGTSETDTICTCEEGWHCTSEACESCVLHRSCSPGFGVKQIAVRPKTWLCNRQAQTRLMLSVVPRIG
Turning to B3, the “dose response of inhibition … (in words)” value in test [1] is “did not cause any inhibition”. Moreover, the “level of cytokine RANTES secretion (summary statement)” value is “increased level” in test [1] (listed as CD40 skipping exon 5 variant) and “raise the level of secretion” in test [1] (listed as skipping 5).

Values taken from patent US20060287229A1, “Novel CD40 variants” (priority 2004, published 2006).
